# Data as given in patent US20260201064A1 (ISU ABXIS, published 2026).
# T1: recombinant human ASM protein (human, UniProt P17405 47-630)
# T1 construct: Recombinant human ASM in solution; also called acid sphingomyelinase (ASM) protein
# T1 sequence: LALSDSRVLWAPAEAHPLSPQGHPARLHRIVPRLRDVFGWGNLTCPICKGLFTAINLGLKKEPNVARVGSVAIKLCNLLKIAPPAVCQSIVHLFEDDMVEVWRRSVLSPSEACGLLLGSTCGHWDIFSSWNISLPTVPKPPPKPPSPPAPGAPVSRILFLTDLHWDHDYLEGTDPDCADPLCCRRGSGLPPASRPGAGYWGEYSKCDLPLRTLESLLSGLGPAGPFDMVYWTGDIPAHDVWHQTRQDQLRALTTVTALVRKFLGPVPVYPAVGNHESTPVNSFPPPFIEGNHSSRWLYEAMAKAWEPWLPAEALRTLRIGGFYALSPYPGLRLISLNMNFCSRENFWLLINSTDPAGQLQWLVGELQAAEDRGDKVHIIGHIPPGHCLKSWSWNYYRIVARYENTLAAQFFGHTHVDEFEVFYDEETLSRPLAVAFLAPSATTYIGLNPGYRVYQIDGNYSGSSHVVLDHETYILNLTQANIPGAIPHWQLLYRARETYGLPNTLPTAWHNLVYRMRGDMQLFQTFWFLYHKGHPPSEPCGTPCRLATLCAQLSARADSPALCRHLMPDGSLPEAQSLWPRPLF
# Biological target: T1, recombinant human ASM protein
# Test: BLI (Octet), antibody on AHC sensor
# Experimental: The binding affinity, to the ASM protein, of the produced antibodies specifically binding to the ASM protein and the interactive dynamics therebetween were measured using an Octet® QK384 system (Pall Life Sciences).
# First, an antibody specifically binding to the ASM protein produced in Example 1 was captured using an anti-human IgG Fc capture (AHC) biosensor, and 1.25, 2.5, 5, 10, or 20 nM recombinant human ASM protein solution was added thereto. […] The association constant (Kₐ), dissociation constant (Kd), and equilibrium dissociation constant (KD) for each antibody were determined using Octet® analysis software (Pall Life® Sciences). As a result, the binding affinities, to the human ASM protein, of the antibodies with mutations in the heavy chain CDR regions of the antibody #9104 as depicted in Table 1 are shown in Table 5, and the binding affinities, to the human ASM protein, of the antibodies with mutations of the light chain CDR regions in the antibody #9104 as depicted in Table 2 are shown in Table 6.
# After the small-scale expression in the ExpiCHO cell line as described above, the binding affinity to the human ASM protein was investigated as described in Experimental Example 1. Specifically, the antibody produced by a combination of #9104v-H33 heavy chain variable region and #9104v-L23 light chain variable region was not expressed and thus excluded in the analysis of binding affinity to ASM protein.
Binder,Kd [nM],koff [s⁻¹],kon [M⁻¹ s⁻¹]
"#9104a-D6 (antibody, human IgG4 S228P, lambda, V domains shown, VH of #9104v-H27 with VL of #9104v-L64; full-length IgG, lambda) VH: EVQLLESGGGLVQPGGSLRLSCAASGFTFSNYYMSWVRQAPGKGLEWVSGTYYDSGYVYYADSVKGRFTISRDNSKNTLYLQMNSLRAEDTAVYYCARDTPGFDYWGQGTLVTVSS VL: QSVLTQPPSASGTPGQRVTISCTGSSSNIGNNAVNWYQQLPGTAPKLLIYYDYFSHSGVPDRFSGSKSGTSASLAISGLRSEDEADYYCGAWDYSLSAYVFGGGTKLTVLG",1.07,8.7e-05,81200
"#9104a-C5 (antibody, human IgG4 S228P, lambda, V domains shown, VH of #9104v-H19 with VL of #9104v-L23; full-length IgG, lambda) VH: EVQLLESGGGLVQPGGSLRLSCAASGFTFSNYYMSWVRQAPGKGLEWVSGIYYGSGVPYYADSVKGRFTISRDNSKNTLYLQMNSLRAEDTAVYYCARDTPGFDYWGQGTLVTVSS VL: QSVLTQPPSASGTPGQRVTISCTGSSSNIGNNAVNWYQQLPGTAPKLLIYYDQFRPSGVPDRFSGSKSGTSASLAISGLRSEDEADYYCGAWDYSLSAYVFGGGTKLTVLG",0.192,6.46e-05,337000
"#9104a-C3 (antibody, human IgG4 S228P, lambda, V domains shown, VH of #9104v-H13 with VL of #9104v-L23; full-length IgG, lambda) VH: EVQLLESGGGLVQPGGSLRLSCAASGFTFSNYYMSWVRQAPGKGLEWVSGIYYGSGIPYYANSVKGRFTISRDNSKNTLYLQMNSLRAEDTAVYYCARDTPGFDYWGQGTLVTVSS VL: QSVLTQPPSASGTPGQRVTISCTGSSSNIGNNAVNWYQQLPGTAPKLLIYYDQFRPSGVPDRFSGSKSGTSASLAISGLRSEDEADYYCGAWDYSLSAYVFGGGTKLTVLG",0.176,4.55e-05,259000
"#9104a-D7 (antibody, human IgG4 S228P, lambda, V domains shown, VH of #9104v-H31 with VL of #9104v-L64; full-length IgG, lambda) VH: EVQLLESGGGLVQPGGSLRLSCAASGFTFSNYYMSWVRQAPGKGLEWVSGVYYGSGTPYYADSVKGRFTISRDNSKNTLYLQMNSLRAEDTAVYYCARDTPGFDYWGQGTLVTVSS VL: QSVLTQPPSASGTPGQRVTISCTGSSSNIGNNAVNWYQQLPGTAPKLLIYYDYFSHSGVPDRFSGSKSGTSASLAISGLRSEDEADYYCGAWDYSLSAYVFGGGTKLTVLG",0.198,5.69e-05,288000
"#9104a-C2 (antibody, human IgG4 S228P, lambda, V domains shown, VH of #9104v-H11 with VL of #9104v-L23; full-length IgG, lambda) VH: EVQLLESGGGLVQPGGSLRLSCAASGFTFSNYYMSWVRQAPGKGLEWVSGIYYGSGIPYYADSVKERFTISRDNSKNTLYLQMNSLRAEDTAVYYCARDTPGFDYWGQGTLVTVSS VL: QSVLTQPPSASGTPGQRVTISCTGSSSNIGNNAVNWYQQLPGTAPKLLIYYDQFRPSGVPDRFSGSKSGTSASLAISGLRSEDEADYYCGAWDYSLSAYVFGGGTKLTVLG",0.172,5.28e-05,306000
"#9104a-C6 (antibody, human IgG4 S228P, lambda, V domains shown, VH of #9104v-H27 with VL of #9104v-L23; full-length IgG, lambda) VH: EVQLLESGGGLVQPGGSLRLSCAASGFTFSNYYMSWVRQAPGKGLEWVSGTYYDSGYVYYADSVKGRFTISRDNSKNTLYLQMNSLRAEDTAVYYCARDTPGFDYWGQGTLVTVSS VL: QSVLTQPPSASGTPGQRVTISCTGSSSNIGNNAVNWYQQLPGTAPKLLIYYDQFRPSGVPDRFSGSKSGTSASLAISGLRSEDEADYYCGAWDYSLSAYVFGGGTKLTVLG",0.928,0.000109,117000
"#9104a-D4 (antibody, human IgG4 S228P, lambda, V domains shown, VH of #9104v-H17 with VL of #9104v-L64; full-length IgG, lambda) VH: EVQLLESGGGLVQPGGSLRLSCAASGFTFSNYYMSWVRRAPGKGLEWVSGIYYGSGTPYYAASVKGRFTISRDNSKNTLYLQMNSLRAEDTAVYYCARDTPGFDYWGQGTLVTVSS VL: QSVLTQPPSASGTPGQRVTISCTGSSSNIGNNAVNWYQQLPGTAPKLLIYYDYFSHSGVPDRFSGSKSGTSASLAISGLRSEDEADYYCGAWDYSLSAYVFGGGTKLTVLG",0.206,5.09e-05,248000
"#9104a-C4 (antibody, human IgG4 S228P, lambda, V domains shown, VH of #9104v-H17 with VL of #9104v-L23; full-length IgG, lambda) VH: EVQLLESGGGLVQPGGSLRLSCAASGFTFSNYYMSWVRRAPGKGLEWVSGIYYGSGTPYYAASVKGRFTISRDNSKNTLYLQMNSLRAEDTAVYYCARDTPGFDYWGQGTLVTVSS VL: QSVLTQPPSASGTPGQRVTISCTGSSSNIGNNAVNWYQQLPGTAPKLLIYYDQFRPSGVPDRFSGSKSGTSASLAISGLRSEDEADYYCGAWDYSLSAYVFGGGTKLTVLG",0.203,6.42e-05,317000
"#9104a-D3 (antibody, human IgG4 S228P, lambda, V domains shown, VH of #9104v-H13 with VL of #9104v-L64; full-length IgG, lambda) VH: EVQLLESGGGLVQPGGSLRLSCAASGFTFSNYYMSWVRQAPGKGLEWVSGIYYGSGIPYYANSVKGRFTISRDNSKNTLYLQMNSLRAEDTAVYYCARDTPGFDYWGQGTLVTVSS VL: QSVLTQPPSASGTPGQRVTISCTGSSSNIGNNAVNWYQQLPGTAPKLLIYYDYFSHSGVPDRFSGSKSGTSASLAISGLRSEDEADYYCGAWDYSLSAYVFGGGTKLTVLG",0.229,6.73e-05,294000
"#9104a-D8 (antibody, human IgG4 S228P, lambda, V domains shown, VH of #9104v-H33 with VL of #9104v-L64; full-length IgG, lambda) VH: EVQLLESGGGLVQPGGSLRLSCAASGFTFSNYYMSWVRQAPGKGLEWVSGVYYPSGNPYYADSVKGRFTISRDNSKNTLYLQMNSLRAEDTAVYYCARDTPGFDYWGQGTLVTVSS VL: QSVLTQPPSASGTPGQRVTISCTGSSSNIGNNAVNWYQQLPGTAPKLLIYYDYFSHSGVPDRFSGSKSGTSASLAISGLRSEDEADYYCGAWDYSLSAYVFGGGTKLTVLG",0.177,3.33e-05,188000
"#9104a-E1 (antibody, human IgG4 S228P, lambda, V domains shown, VH of #9104v-H10 with VL of #9104v-L65; full-length IgG, lambda) VH: EVQLLESGGGLVQPGGSLRLSCAASGFTFSNYYMSWVRQAPGKGLEWVSGIYYGNGIPYYADSVKDRFTISRDNSKNTLYLQMNSLRAEDTAVYYCARDTPGFDYWGQGTLVTVSS VL: QSVLTQPPSASGTPGQRVTISCTGSSSNIGNNAVNWYQQLPGTAPKLLIYYDYYQSSGVPDRFSGSKSGTSASLAISGLRSEDEADYYCGAWDYSLSAYVFGGGTKLTVLG",0.289,6.21e-05,215000

# These reach a lower Kd. Values come first.
Kd [nM],koff [s⁻¹],kon [M⁻¹ s⁻¹],Binder
0.139,3.76e-05,271000,"#9104a-C1 (antibody, human IgG4 S228P, lambda, V domains shown, VH of #9104v-H10 with VL of #9104v-L23; full-length IgG, lambda) VH: EVQLLESGGGLVQPGGSLRLSCAASGFTFSNYYMSWVRQAPGKGLEWVSGIYYGNGIPYYADSVKDRFTISRDNSKNTLYLQMNSLRAEDTAVYYCARDTPGFDYWGQGTLVTVSS VL: QSVLTQPPSASGTPGQRVTISCTGSSSNIGNNAVNWYQQLPGTAPKLLIYYDQFRPSGVPDRFSGSKSGTSASLAISGLRSEDEADYYCGAWDYSLSAYVFGGGTKLTVLG"
0.152,4.56e-05,300000,"#9104a-C7 (antibody, human IgG4 S228P, lambda, V domains shown, VH of #9104v-H31 with VL of #9104v-L23; full-length IgG, lambda) VH: EVQLLESGGGLVQPGGSLRLSCAASGFTFSNYYMSWVRQAPGKGLEWVSGVYYGSGTPYYADSVKGRFTISRDNSKNTLYLQMNSLRAEDTAVYYCARDTPGFDYWGQGTLVTVSS VL: QSVLTQPPSASGTPGQRVTISCTGSSSNIGNNAVNWYQQLPGTAPKLLIYYDQFRPSGVPDRFSGSKSGTSASLAISGLRSEDEADYYCGAWDYSLSAYVFGGGTKLTVLG"
0.0948,2.79e-05,294000,"#9104a-D1 (antibody, human IgG4 S228P, lambda, V domains shown, VH of #9104v-H10 with VL of #9104v-L64; full-length IgG, lambda) VH: EVQLLESGGGLVQPGGSLRLSCAASGFTFSNYYMSWVRQAPGKGLEWVSGIYYGNGIPYYADSVKDRFTISRDNSKNTLYLQMNSLRAEDTAVYYCARDTPGFDYWGQGTLVTVSS VL: QSVLTQPPSASGTPGQRVTISCTGSSSNIGNNAVNWYQQLPGTAPKLLIYYDYFSHSGVPDRFSGSKSGTSASLAISGLRSEDEADYYCGAWDYSLSAYVFGGGTKLTVLG"
0.149,5.22e-05,351000,"#9104a-D2 (antibody, human IgG4 S228P, lambda, V domains shown, VH of #9104v-H11 with VL of #9104v-L64; full-length IgG, lambda) VH: EVQLLESGGGLVQPGGSLRLSCAASGFTFSNYYMSWVRQAPGKGLEWVSGIYYGSGIPYYADSVKERFTISRDNSKNTLYLQMNSLRAEDTAVYYCARDTPGFDYWGQGTLVTVSS VL: QSVLTQPPSASGTPGQRVTISCTGSSSNIGNNAVNWYQQLPGTAPKLLIYYDYFSHSGVPDRFSGSKSGTSASLAISGLRSEDEADYYCGAWDYSLSAYVFGGGTKLTVLG"
0.13,3.39e-05,261000,"#9104a-D5 (antibody, human IgG4 S228P, lambda, V domains shown, VH of #9104v-H19 with VL of #9104v-L64; full-length IgG, lambda) VH: EVQLLESGGGLVQPGGSLRLSCAASGFTFSNYYMSWVRQAPGKGLEWVSGIYYGSGVPYYADSVKGRFTISRDNSKNTLYLQMNSLRAEDTAVYYCARDTPGFDYWGQGTLVTVSS VL: QSVLTQPPSASGTPGQRVTISCTGSSSNIGNNAVNWYQQLPGTAPKLLIYYDYFSHSGVPDRFSGSKSGTSASLAISGLRSEDEADYYCGAWDYSLSAYVFGGGTKLTVLG"
